From FireProtDB (doi:10.1016/s0022-2836(99)80018-7)

B1: Ribonuclease, P00648 (parent)
chain: MMKMEGIALKKRLSWISVCLLVLVSAAGMLFSTAAKTETSSHKAHTEAQVINTFDGVADYLQTYHKLPDNYITKSEAQALGWVASKGNLADVAPGKSIGGDIFSNREGKLPGKSGRTWREADINYTSGFRNSDRILYSSDWLIYKTTDHYQTFTKIR

Variants of: B1
Conditions: Bacillus amyloliquefaciens; pH 6.3; 25 °C; Urea; Fluorescence; MES 50 mM; reversible: yes; structure 1BNI; whole UniProt chain shown

Variant | ddG of mutation (higher = less stable) | denaturant m value | denaturant midpoint (higher = more stable) | unfolding free energy
D59A | 0.34 kcal/mol | 2.12 kcal/mol/M | 4.42 M | 9.59 kcal/mol
D55A | 0.99 kcal/mol | 2.15 kcal/mol/M | 4.12 M | 8.94 kcal/mol
D55A D59A R157A | -0.11 kcal/mol | 2.16 kcal/mol/M | 4.63 M | 10 kcal/mol
D59A R157A | -0.45 kcal/mol | 2.14 kcal/mol/M | 4.78 M | 10.4 kcal/mol
D55A D59A | 0.89 kcal/mol | 1.98 kcal/mol/M | 4.16 M | 9.04 kcal/mol
D55A R157A | 0.47 kcal/mol | 1.96 kcal/mol/M | 4.36 M | 9.46 kcal/mol
R157A | 0.46 kcal/mol | 2.26 kcal/mol/M | 4.37 M | 9.47 kcal/mol
